Experimental data taken from patent US20250059282A1 (University of Texas, published 2025).
Where a chain is given by its changes, count along the chain named. Like-named read-outs stand apart in the source and are kept apart here. Blank lines part the entries; values can stand above or below the binder they belong to.

Tests used:
[1] = biological target: T1, human PD-L1 on CHO cells (human, UniProt Q9NZQ7 19-290); test: cell-based or functional assay
[2] = biological target: T2, human PD-L2 on CHO cells (human, UniProt Q9BQ51 20-273); test: cell-based or functional assay
T2 sequence: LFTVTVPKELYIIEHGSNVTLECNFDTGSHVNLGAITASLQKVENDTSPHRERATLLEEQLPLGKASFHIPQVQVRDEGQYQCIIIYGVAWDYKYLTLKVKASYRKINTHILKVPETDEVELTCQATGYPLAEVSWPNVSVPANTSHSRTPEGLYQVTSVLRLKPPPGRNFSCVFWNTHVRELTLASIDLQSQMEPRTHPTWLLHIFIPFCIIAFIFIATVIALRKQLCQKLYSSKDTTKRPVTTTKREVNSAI

[3] = biological target: T3, Human PD-L1-HIS (human, UniProt Q9NZQ7 19-238); test: ForteBio, IgG, monovalent
T3 construct: also called HIS-tagged monovalent PD-L1; His-tagged human PD-L1; not shown: His tag
T3 sequence (Q9NZQ7 19-238 limits assumed): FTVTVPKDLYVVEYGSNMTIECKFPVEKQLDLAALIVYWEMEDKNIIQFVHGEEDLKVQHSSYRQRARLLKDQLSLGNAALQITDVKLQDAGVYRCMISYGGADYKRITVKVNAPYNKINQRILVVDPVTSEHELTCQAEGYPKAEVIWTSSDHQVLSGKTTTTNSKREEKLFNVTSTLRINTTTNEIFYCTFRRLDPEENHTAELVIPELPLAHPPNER

[4] = biological target: T4, Human PD-L2-HIS (human, UniProt Q9BQ51 20-220); test: ForteBio, IgG, monovalent
T4 construct: also called His-tagged human PD-L2; not shown: His tag
T4 sequence: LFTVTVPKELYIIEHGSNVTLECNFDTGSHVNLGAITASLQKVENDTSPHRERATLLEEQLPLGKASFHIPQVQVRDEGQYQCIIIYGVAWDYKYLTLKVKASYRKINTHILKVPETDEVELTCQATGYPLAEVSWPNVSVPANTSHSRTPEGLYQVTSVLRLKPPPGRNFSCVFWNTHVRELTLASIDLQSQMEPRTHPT

[5] = biological target: T5, Mouse PD-L2-Fc (mouse, UniProt Q9WUL5 20-219, limits assumed); test: ForteBio, IgG, avid
T5 construct: also called murine PD-L2; not shown: Fc
T5 sequence (looked up): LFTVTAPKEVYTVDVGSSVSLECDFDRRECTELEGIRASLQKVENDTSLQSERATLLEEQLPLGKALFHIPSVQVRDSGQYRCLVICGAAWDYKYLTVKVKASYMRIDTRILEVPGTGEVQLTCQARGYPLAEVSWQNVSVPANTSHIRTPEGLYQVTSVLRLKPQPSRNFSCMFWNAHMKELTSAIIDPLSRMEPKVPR

[6] = biological target: T6, Cyno PD-L1-Fc (cynomolgus, UniProt G7PSE7 19-238); test: ForteBio, IgG, avid
T6 construct: also called cynomolgus PD-L1
T6 sequence (G7PSE7 entry or part of it limits assumed): as the sequence (Q9NZQ7 19-238 limits assumed) above, with A33T, A34S, S62N, R68Q, Q82R, F173L, T185A, T192I, H215L counted along it

[7] = biological target: T7, Cyno PD-L2-Fc (cynomolgus, UniProt A0A2K5U5Z4 20-220); test: ForteBio, IgG, avid
T7 construct: also called cynomolgus PD-L2; not shown: Fc
T7 sequence: T4 sequence with V19A, P62S, S67L, V139I, P166H, T178A, H179Q, M194I

[8] = biological target: T8, Mouse PD-L1-Fc (mouse, UniProt Q9EP73 19-239, limits assumed); test: ForteBio, IgG, avid
T8 construct: also called murine PD-L1; not shown: Fc
T8 sequence (Q9EP73 19-239 limits assumed): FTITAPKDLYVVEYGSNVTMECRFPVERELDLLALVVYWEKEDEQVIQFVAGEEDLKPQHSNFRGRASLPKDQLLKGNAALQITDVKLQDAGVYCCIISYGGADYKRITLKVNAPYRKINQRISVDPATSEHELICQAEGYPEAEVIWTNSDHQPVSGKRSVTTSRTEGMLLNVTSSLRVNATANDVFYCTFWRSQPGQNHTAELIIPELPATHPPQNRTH

[9] = biological target: T9, Human PD-L1-Fc (human, UniProt Q9NZQ7 19-238); test: ForteBio Octet, IgG, avid
T9 construct: also called dimeric PD-L1; PD-L1 (dimeric ligand); not shown: human IgG1 Fc constant region
T9 sequence (Q9NZQ7 19-238 limits assumed): as the sequence (Q9NZQ7 19-238 limits assumed) above

[10] = biological target: T5, Mouse PD-L2-Fc; test: ForteBio Octet, IgG, avid
[11] = biological target: T6, Cyno PD-L1-Fc; test: ForteBio Octet, IgG, avid
[12] = biological target: T7, Cyno PD-L2-Fc; test: ForteBio Octet, IgG, avid
[13] = biological target: T8, Mouse PD-L1-Fc; test: ForteBio Octet, IgG, avid
[14] = biological target: T10, Human PD-L2-Fc (human, UniProt Q9BQ51 20-220); test: ForteBio Octet, IgG, avid
T10 construct: also called dimeric PD-L2; PD-L2 (dimeric ligand); not shown: human IgG1 Fc constant region
T10 sequence: T4 sequence

[15] = biological target: T3, Human PD-L1-HIS; test: ForteBio Octet, IgG; column head says Avid
[16] = biological target: T5, Mouse PD-L2-Fc; test: ForteBio, IgG, avid; remark: listed apart in the source
[17] = biological target: T6, Cyno PD-L1-Fc; test: ForteBio, IgG, avid; remark: listed apart in the source
[18] = biological target: T7, Cyno PD-L2-Fc; test: ForteBio, IgG, avid; remark: listed apart in the source
[19] = biological target: T8, Mouse PD-L1-Fc; test: ForteBio, IgG, avid; remark: listed apart in the source
[20] = biological target: T3, Human PD-L1-HIS; test: ForteBio, IgG, monovalent; remark: listed apart in the source
[21] = biological target: T4, Human PD-L2-HIS; test: ForteBio, IgG, monovalent; remark: listed apart in the source
[22] = biological target: T4, Human PD-L2-HIS; test: ForteBio Octet, IgG, monovalent
[23] = biological target: T11, Human b-PD-L1-His (human, UniProt Q9NZQ7 19-238, biotinylated (b-); sites not stated); test: MSD-SET, Fab, monovalent
T11 construct: Antigen of the MSD-SET measurements; also called biotinylated human PD-L1-His; not shown: His tag
T11 sequence (Q9NZQ7 19-238 limits assumed): as above
Experimental: (§1) Briefly, solution equilibrium titrations (SET) were performed in PBS +0.1% IgG-Free BSA (PBSF) with antigen held constant at 50 pM and incubated with 3- to 5-fold serial dilutions of Fab starting at 20 nM. Antibodies (20 nM in PBS) were coated onto standard bind MSD®-ECL plates overnight at 4° C. or at room temperature for 30 min. Plates were then blocked by BSA for 30 min with shaking at 700 rpm, followed by three washes with wash buffer (PBSF+0.05% Tween 20). SET samples were applied and incubated on the plates for 150 s with shaking at 700 rpm followed by one wash. Antigen captured on a plate was detected with 250 ng/mL sulfotag-labeled streptavidin in PBSF by incubation on the plate for 3 min. The plates were washed three times with wash buffer and then read on the MSD® Sector Imager 2400 instrument using 1× Read Buffer T with surfactant. The percent free antigen was plotted as a function of titrated antibody in Prism and fit to a quadratic equation to extract the KD. To improve throughput, liquid handling robots were used throughout MSD®-SET experiments, including SET sample preparation.

[24] = biological target: T12, Human b-PD-L2-His (human, UniProt Q9BQ51 20-220, biotinylated (b-); sites not stated); test: MSD-SET, Fab, monovalent
T12 construct: Antigen of the MSD-SET measurements; also called biotinylated human PD-L2-His; not shown: His tag
T12 sequence: T4 sequence
Experimental: as §1

[25] = biological target: T9, Human PD-L1-Fc; test: ForteBio Octet, Fab, monovalent
Experimental: (§2) ForteBio KD measurements—ForteBio affinity measurements were performed on an Octet® RED384 generally as previously described (see, e.g., Estep et al., 2013). Briefly, ForteBio affinity measurements were performed by loading IgGs on-line onto AHQ sensors. Sensors were equilibrated off-line in assay buffer for 30 min and then monitored on-line for 60 seconds for baseline establishment. Sensors with loaded IgGs were exposed to 100 nM antigen for 3 minutes, and afterwards were transferred to assay buffer for 3 min for off-rate measurement. For monovalent affinity assessment Fabs were used instead of IgGs. For this assessment the […] Fc fusion antigen was loaded on-line onto the AHQ sensors. Sensors were equilibrated off-line in assay buffer for 30 min and then monitored on-line for 60 seconds for baseline establishment. Sensors with loaded antigen were exposed to 100 nM Fab for 3 minutes, and afterwards they were transferred to assay buffer for 3 min for off-rate measurement. All kinetics were analyzed using the 1:1 binding model.

[26] = biological target: T10, Human PD-L2-Fc; test: ForteBio Octet, Fab, monovalent
Experimental: as §2

[27] = biological target: T9, Human PD-L1-Fc; test: ForteBio, Fab, monovalent
Experimental: as §2

[28] = biological target: T10, Human PD-L2-Fc; test: ForteBio, Fab, monovalent
Experimental: as §2

[29] = biological target: T11, Human b-PD-L1-His; test: MSD-SET, Fab, monovalent; remark: listed apart in the source
Experimental: as §1

[30] = biological target: T12, Human b-PD-L2-His; test: MSD-SET, Fab, monovalent; remark: listed apart in the source
Experimental: as §1

[31] = biological target: T3, Human PD-L1-HIS; test: ForteBio Octet, IgG; column head says Avid; IgG against Human PD-L1-HIS (head says Avid), not Fab against PD-L1-Fc
[32] = biological target: T1, human PD-L1 on CHO cells; test: cell-based or functional assay; remark: listed apart in the source
[33] = biological target: T2, human PD-L2 on CHO cells; test: cell-based or functional assay; remark: listed apart in the source

T1 sequence (Q9NZQ7 19-290 limits assumed): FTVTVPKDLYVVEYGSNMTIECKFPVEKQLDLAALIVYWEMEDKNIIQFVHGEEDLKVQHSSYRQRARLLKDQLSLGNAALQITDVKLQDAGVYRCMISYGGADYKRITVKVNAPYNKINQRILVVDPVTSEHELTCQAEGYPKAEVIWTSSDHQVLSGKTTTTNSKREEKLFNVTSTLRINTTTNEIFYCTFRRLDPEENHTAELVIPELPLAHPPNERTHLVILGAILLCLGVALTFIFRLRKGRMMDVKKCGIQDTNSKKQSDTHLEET

EC50 (read off the curve); Luc Activity, Promega CHO-PDL1/PD-L2 dual cells with NFAT-Luc Jurkat T cells (PD-L1 and PD-L2 not separable) [1]: ~2 nM
EC50 (read off the curve); Luc Activity, Promega CHO-PDL1/PD-L2 dual cells with NFAT-Luc Jurkat T cells (PD-L1 and PD-L2 not separable) [2]: ~2 nM
Kd [3]: 3.93 nM
Kd [4]: 0.684 nM
Kd [5]: 0.533 nM
Kd [6]: 0.371 nM
Kd [7]: 0.543 nM
Kd [8]: 2.34 nM
B1: BiPDL3-14 (antibody, V domains shown)
VH: QVQLQQWGAGLLKPSETLSLTCAVYGGSLSGYPWSWIRQPPGKGLEWIGETDVSGWTDYNPSLKSRVTISVDTSKNQFSLKLSSVTAADTAVYYCARDGRRMGTPSFDIWGQGTMVTVSS
VL: DIQMTQSPSSVSASVGDRVTITCRASQGINSFLAWYQQKPGKAPKLLIYAASSLNSGVPSRFSGSGSGTDFTLTISSLQPEDFATYYCQKAVYFPPTFGGGTKVEIK
notes: IgG; also called ADI-37464; 37464

Kd [9]: 3.28 nM
Kd [10]: 1.22 nM
Kd [11]: 2.34 nM
Kd [12]: 0.688 nM
binding result [13]: no binding (tested: 100 nM antigen)
Kd [14]: 0.431 nM
B2: BiPDL3-13 (antibody, V domains shown)
VH: B1 VH
VL: B1 VL with M4L, N30S, F32W, N55Q, K90Q, A91Y
notes: Third generation, IgG

Kd [15]: 2.17 nM
Kd [16]: 5.69 nM
Kd [17]: 0.408 nM
Kd [18]: 0.739 nM
Kd [19]: 0.544 nM
Kd [10]: 5.69 nM
Kd [11]: 0.408 nM
Kd [12]: 0.739 nM
Kd [13]: 0.544 nM
Kd [20]: 6.85 nM
Kd [21]: 0.932 nM
Kd [22]: 0.932 nM
B3: BiPDL4-34 (antibody, V domains shown)
VH: QVQLVESGGGVIQPGRSLRLSCAASGFTFSAYLMHWVRQAPGKGLEWVAAIGYDGMNKYYADSVKGRFTISRDNSKNTLYLQMNSLRAEDTAVYYCARAGIEYSYAYTDYWGQGTLVTVSS
VL: EIVLTQSPGTLSLSPGERATLSCRASQFVYSSDLAWYQQKPGQAPRLLIYGASARAAGIPDRFSGSGSGTDFTLTISRLEPEDFAVYYCMQFGWWPPRTFGGGTKVEIK
notes: Fourth generation, IgG

Kd [23]: 0.96 nM
Kd [24]: 0.052 nM
Kd [25]: 6.85 nM
Kd [26]: 0.56 nM
Kd [27]: 2.17 nM
Kd [28]: 0.56 nM
Kd [29]: 0.96 nM
Kd [30]: 0.052 nM
B4: BiPDL4-34 Fab (Fab, V domains shown)
VH: B3 VH
VL: B3 VL
notes: Fab made by papain digestion of the IgG

Kd [31]: 0.692 nM
Kd [16]: 7.88 nM
Kd [17]: 0.508 nM
Kd [18]: 0.64 nM
Kd [19]: 0.4 nM
Kd [10]: 7.88 nM
Kd [11]: 0.508 nM
Kd [12]: 0.64 nM
Kd [13]: 0.4 nM
Kd [20]: 2.26 nM
Kd [21]: 0.738 nM
EC50 (read off the curve); Fold induction of luciferase, Promega: CHO-PD-L1/PD-L2 dual cells with PD-1 Jurkat reporter cells (PD-L1 and PD-L2 not separable) [32]: ~0.3 nM
EC50 (read off the curve); Fold induction of luciferase, Promega: CHO-PD-L1/PD-L2 dual cells with PD-1 Jurkat reporter cells (PD-L1 and PD-L2 not separable) [33]: ~0.3 nM
Kd [22]: 0.738 nM
B5: BiPDL4-14 (antibody, V domains shown)
VH: B3 VH with I12V, S30D, A31E, L33G, A50V, M56L
VL: B3 VL with A54T, A56K, A57T, M90L
notes: Fourth generation, IgG

Kd [23]: 0.12 nM
Kd [24]: 0.11 nM
Kd [25]: 2.26 nM
Kd [26]: 0.402 nM
Kd [27]: 0.692 nM
Kd [28]: 0.402 nM
Kd [29]: 0.12 nM
Kd [30]: 0.11 nM
B6: BiPDL4-14 Fab (Fab, V domains shown)
VH: B3 VH with I12V, S30D, A31E, L33G, A50V, M56L
VL: B3 VL with A54T, A56K, A57T, M90L
notes: as for B4
